{"source": "paper PMC3334620"}
{"target": "T1, Ecm22 (Saccharomyces cerevisiae) (UniProt Q05958)", "T1 sequence": "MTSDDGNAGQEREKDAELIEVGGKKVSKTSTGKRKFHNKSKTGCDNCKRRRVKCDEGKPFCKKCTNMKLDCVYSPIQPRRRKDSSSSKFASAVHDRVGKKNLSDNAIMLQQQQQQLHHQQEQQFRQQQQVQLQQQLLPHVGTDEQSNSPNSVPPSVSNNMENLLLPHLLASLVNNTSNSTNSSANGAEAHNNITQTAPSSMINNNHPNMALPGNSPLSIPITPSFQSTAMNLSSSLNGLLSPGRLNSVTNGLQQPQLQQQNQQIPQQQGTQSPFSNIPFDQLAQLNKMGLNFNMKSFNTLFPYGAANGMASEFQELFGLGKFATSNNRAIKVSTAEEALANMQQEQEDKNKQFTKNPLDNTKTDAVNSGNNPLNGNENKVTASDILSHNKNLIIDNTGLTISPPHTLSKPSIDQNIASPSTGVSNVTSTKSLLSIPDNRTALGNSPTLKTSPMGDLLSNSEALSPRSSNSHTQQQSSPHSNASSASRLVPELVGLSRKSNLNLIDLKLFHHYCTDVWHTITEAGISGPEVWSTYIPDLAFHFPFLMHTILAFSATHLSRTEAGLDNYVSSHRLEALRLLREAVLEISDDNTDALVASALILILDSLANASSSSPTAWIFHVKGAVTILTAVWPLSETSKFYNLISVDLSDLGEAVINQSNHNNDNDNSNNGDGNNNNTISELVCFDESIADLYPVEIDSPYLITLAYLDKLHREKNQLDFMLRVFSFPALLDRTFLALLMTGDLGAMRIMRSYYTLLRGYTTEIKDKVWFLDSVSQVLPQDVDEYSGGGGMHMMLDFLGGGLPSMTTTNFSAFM", "conditions": "200 nM"}
{"sequence": "CTCGTTCC (double strand) [8-mer CTCGTTCC]", "binding signal (PBM E-score (-0.5 to 0.5))": 0.496}
{"sequence": "CGGAACGA (double strand) [8-mer CGGAACGA]", "binding signal (PBM E-score (-0.5 to 0.5))": 0.493}
{"sequence": "AGGTACGA (double strand) [8-mer AGGTACGA]", "binding signal (PBM E-score (-0.5 to 0.5))": 0.495}
{"sequence": "AGGAACGA (double strand) [8-mer AGGAACGA]", "binding signal (PBM E-score (-0.5 to 0.5))": 0.495}
{"sequence": "CTCGTACC (double strand) [8-mer CTCGTACC]", "binding signal (PBM E-score (-0.5 to 0.5))": 0.496}
{"sequence": "GGTACGAC (double strand) [8-mer GGTACGAC]", "binding signal (PBM E-score (-0.5 to 0.5))": 0.495}
{"target": "T2, Mot3 (Saccharomyces cerevisiae) (UniProt P54785)", "T2 sequence": "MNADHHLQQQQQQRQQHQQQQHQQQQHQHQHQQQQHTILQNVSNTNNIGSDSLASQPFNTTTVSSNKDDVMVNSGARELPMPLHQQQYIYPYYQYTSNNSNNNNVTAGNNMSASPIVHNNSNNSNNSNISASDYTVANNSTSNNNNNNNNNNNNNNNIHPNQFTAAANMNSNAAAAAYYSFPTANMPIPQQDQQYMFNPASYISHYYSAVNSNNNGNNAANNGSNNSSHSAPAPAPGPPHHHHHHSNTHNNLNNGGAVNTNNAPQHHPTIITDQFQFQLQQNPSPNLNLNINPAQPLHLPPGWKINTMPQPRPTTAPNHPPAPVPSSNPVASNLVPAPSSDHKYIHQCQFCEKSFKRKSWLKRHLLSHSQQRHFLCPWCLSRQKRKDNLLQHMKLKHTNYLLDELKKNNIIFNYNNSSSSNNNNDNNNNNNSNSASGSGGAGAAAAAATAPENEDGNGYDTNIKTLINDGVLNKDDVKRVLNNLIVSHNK", "conditions": "200 nM"}
{"sequence": "CAGGCACG (double strand) [8-mer CAGGCACG]", "binding signal (PBM E-score (-0.5 to 0.5))": 0.496}
{"sequence": "ACAGGCAC (double strand) [8-mer ACAGGCAC]", "binding signal (PBM E-score (-0.5 to 0.5))": 0.495}
{"sequence": "GTGCCTGA (double strand) [8-mer GTGCCTGA]", "binding signal (PBM E-score (-0.5 to 0.5))": 0.493}
{"sequence": "AGGCACGC (double strand) [8-mer AGGCACGC]", "binding signal (PBM E-score (-0.5 to 0.5))": 0.496}
{"sequence": "AAAGGCAC (double strand) [8-mer AAAGGCAC]", "binding signal (PBM E-score (-0.5 to 0.5))": 0.495}
{"sequence": "GCAGGCAC (double strand) [8-mer GCAGGCAC]", "binding signal (PBM E-score (-0.5 to 0.5))": 0.497}
{"sequence": "AAGGCACC (double strand) [8-mer AAGGCACC]", "binding signal (PBM E-score (-0.5 to 0.5))": 0.493}
{"sequence": "GCAGGCAA (double strand) [8-mer GCAGGCAA]", "binding signal (PBM E-score (-0.5 to 0.5))": 0.493}
{"sequence": "AAGGCACG (double strand) [8-mer AAGGCACG]", "binding signal (PBM E-score (-0.5 to 0.5))": 0.496}
{"sequence": "ACGTGCCT (double strand) [8-mer ACGTGCCT]", "binding signal (PBM E-score (-0.5 to 0.5))": 0.494}
{"sequence": "GTAGGCAC (double strand) [8-mer GTAGGCAC]", "binding signal (PBM E-score (-0.5 to 0.5))": 0.495}
{"sequence": "CAGGCACA (double strand) [8-mer CAGGCACA]", "binding signal (PBM E-score (-0.5 to 0.5))": 0.493}
{"sequence": "GAAGGCAC (double strand) [8-mer GAAGGCAC]", "binding signal (PBM E-score (-0.5 to 0.5))": 0.495}
{"sequence": "CGTGCCTA (double strand) [8-mer CGTGCCTA]", "binding signal (PBM E-score (-0.5 to 0.5))": 0.495}
{"sequence": "CAGGCACC (double strand) [8-mer CAGGCACC]", "binding signal (PBM E-score (-0.5 to 0.5))": 0.496}
{"target": "T3, Msn1 (Saccharomyces cerevisiae) (UniProt P22148)", "T3 sequence": "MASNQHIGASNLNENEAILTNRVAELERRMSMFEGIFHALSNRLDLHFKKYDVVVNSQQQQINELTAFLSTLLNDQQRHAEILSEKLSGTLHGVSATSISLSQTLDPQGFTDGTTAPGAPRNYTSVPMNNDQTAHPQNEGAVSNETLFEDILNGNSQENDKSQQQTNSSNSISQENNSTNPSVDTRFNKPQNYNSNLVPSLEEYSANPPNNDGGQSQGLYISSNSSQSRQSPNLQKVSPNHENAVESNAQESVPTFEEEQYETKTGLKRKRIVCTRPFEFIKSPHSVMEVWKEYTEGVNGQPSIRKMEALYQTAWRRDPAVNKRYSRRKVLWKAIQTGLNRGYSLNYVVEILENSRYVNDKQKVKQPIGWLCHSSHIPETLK", "conditions": "200 nM"}
{"sequence": "AATGTCCT (double strand) [8-mer AATGTCCT]", "binding signal (PBM E-score (-0.5 to 0.5))": 0.496}
{"sequence": "TGGACAAA (double strand) [8-mer TGGACAAA]", "binding signal (PBM E-score (-0.5 to 0.5))": 0.493}
{"sequence": "AATGTCCA (double strand) [8-mer AATGTCCA]", "binding signal (PBM E-score (-0.5 to 0.5))": 0.493}
{"sequence": "ATATGTCC (double strand) [8-mer ATATGTCC]", "binding signal (PBM E-score (-0.5 to 0.5))": 0.496}
{"sequence": "GAATGTCC (double strand) [8-mer GAATGTCC]", "binding signal (PBM E-score (-0.5 to 0.5))": 0.494}
{"sequence": "AGGACAAA (double strand) [8-mer AGGACAAA]", "binding signal (PBM E-score (-0.5 to 0.5))": 0.498}
{"sequence": "GGACAAAA (double strand) [8-mer GGACAAAA]", "binding signal (PBM E-score (-0.5 to 0.5))": 0.494}
{"sequence": "AAATGTCC (double strand) [8-mer AAATGTCC]", "binding signal (PBM E-score (-0.5 to 0.5))": 0.498}
{"target": "T4, Gcr1 (Saccharomyces cerevisiae) (UniProt P07261)", "T4 sequence": "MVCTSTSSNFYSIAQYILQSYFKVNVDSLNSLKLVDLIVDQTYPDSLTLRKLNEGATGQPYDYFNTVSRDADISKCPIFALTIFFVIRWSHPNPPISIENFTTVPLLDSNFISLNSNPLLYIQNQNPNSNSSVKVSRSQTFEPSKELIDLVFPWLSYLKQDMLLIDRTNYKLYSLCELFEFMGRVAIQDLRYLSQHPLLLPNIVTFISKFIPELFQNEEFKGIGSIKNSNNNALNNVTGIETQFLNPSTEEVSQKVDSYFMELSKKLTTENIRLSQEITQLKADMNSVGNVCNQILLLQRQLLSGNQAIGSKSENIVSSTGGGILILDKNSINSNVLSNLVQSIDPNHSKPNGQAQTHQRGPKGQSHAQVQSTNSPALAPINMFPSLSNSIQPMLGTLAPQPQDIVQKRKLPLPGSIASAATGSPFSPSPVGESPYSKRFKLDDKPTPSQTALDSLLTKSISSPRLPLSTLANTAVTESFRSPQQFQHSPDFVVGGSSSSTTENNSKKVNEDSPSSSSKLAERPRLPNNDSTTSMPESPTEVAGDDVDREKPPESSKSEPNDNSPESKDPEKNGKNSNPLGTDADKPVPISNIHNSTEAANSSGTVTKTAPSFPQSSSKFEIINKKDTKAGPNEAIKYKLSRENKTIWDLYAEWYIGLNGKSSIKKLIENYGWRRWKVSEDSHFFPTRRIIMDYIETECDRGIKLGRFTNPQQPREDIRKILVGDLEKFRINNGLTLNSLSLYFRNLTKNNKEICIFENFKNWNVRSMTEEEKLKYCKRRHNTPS", "conditions": "100 nM"}
{"sequence": "AGCATCCT (double strand) [8-mer AGCATCCT]", "binding signal (PBM E-score (-0.5 to 0.5))": 0.465}
{"sequence": "GGAAGCCC (double strand) [8-mer GGAAGCCC]", "binding signal (PBM E-score (-0.5 to 0.5))": 0.473}
{"sequence": "CGGCTTCC (double strand) [8-mer CGGCTTCC]", "binding signal (PBM E-score (-0.5 to 0.5))": 0.472}
{"sequence": "GAGCTTCC (double strand) [8-mer GAGCTTCC]", "binding signal (PBM E-score (-0.5 to 0.5))": 0.469}
{"sequence": "GGATTCCA (double strand) [8-mer GGATTCCA]", "binding signal (PBM E-score (-0.5 to 0.5))": 0.476}
{"sequence": "GGAAGCCA (double strand) [8-mer GGAAGCCA]", "binding signal (PBM E-score (-0.5 to 0.5))": 0.48}
{"sequence": "GGAATCCC (double strand) [8-mer GGAATCCC]", "binding signal (PBM E-score (-0.5 to 0.5))": 0.464}
{"sequence": "AGGAAGCC (double strand) [8-mer AGGAAGCC]", "binding signal (PBM E-score (-0.5 to 0.5))": 0.487}
{"sequence": "CAGCGTCC (double strand) [8-mer CAGCGTCC]", "binding signal (PBM E-score (-0.5 to 0.5))": 0.465}
{"sequence": "AGCTTCCT (double strand) [8-mer AGCTTCCT]", "binding signal (PBM E-score (-0.5 to 0.5))": 0.485}
{"sequence": "AGGATGCC (double strand) [8-mer AGGATGCC]", "binding signal (PBM E-score (-0.5 to 0.5))": 0.47}
{"sequence": "GGAATCCA (double strand) [8-mer GGAATCCA]", "binding signal (PBM E-score (-0.5 to 0.5))": 0.473}
{"sequence": "GCTTCCTA (double strand) [8-mer GCTTCCTA]", "binding signal (PBM E-score (-0.5 to 0.5))": 0.468}
{"sequence": "GGCTTCCA (double strand) [8-mer GGCTTCCA]", "binding signal (PBM E-score (-0.5 to 0.5))": 0.483}
{"sequence": "GGCATCCA (double strand) [8-mer GGCATCCA]", "binding signal (PBM E-score (-0.5 to 0.5))": 0.469}
{"target": "T5, Hmlalpha2 (Saccharomyces cerevisiae) (UniProt P0CY09)", "T5 sequence": "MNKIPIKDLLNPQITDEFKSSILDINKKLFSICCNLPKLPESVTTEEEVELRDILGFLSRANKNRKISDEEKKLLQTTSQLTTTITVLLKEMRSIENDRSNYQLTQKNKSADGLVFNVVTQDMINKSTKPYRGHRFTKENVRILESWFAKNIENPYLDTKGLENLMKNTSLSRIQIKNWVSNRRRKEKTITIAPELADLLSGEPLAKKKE", "conditions": "200 nM"}
{"sequence": "CGTGTAAA (double strand) [8-mer CGTGTAAA]", "binding signal (PBM E-score (-0.5 to 0.5))": 0.493}
{"sequence": "CCATGTAA (double strand) [8-mer CCATGTAA]", "binding signal (PBM E-score (-0.5 to 0.5))": 0.486}
{"sequence": "ATTACACA (double strand) [8-mer ATTACACA]", "binding signal (PBM E-score (-0.5 to 0.5))": 0.492}
{"sequence": "ACATGTAA (double strand) [8-mer ACATGTAA]", "binding signal (PBM E-score (-0.5 to 0.5))": 0.488}
{"sequence": "TCGTGTAA (double strand) [8-mer TCGTGTAA]", "binding signal (PBM E-score (-0.5 to 0.5))": 0.49}
{"sequence": "ATTACATG (double strand) [8-mer ATTACATG]", "binding signal (PBM E-score (-0.5 to 0.5))": 0.495}
{"sequence": "ATTACACG (double strand) [8-mer ATTACACG]", "binding signal (PBM E-score (-0.5 to 0.5))": 0.495}
{"sequence": "CATGTAAA (double strand) [8-mer CATGTAAA]", "binding signal (PBM E-score (-0.5 to 0.5))": 0.491}
{"sequence": "AATTACAT (double strand) [8-mer AATTACAT]", "binding signal (PBM E-score (-0.5 to 0.5))": 0.489}
{"sequence": "CATGTTAA (double strand) [8-mer CATGTTAA]", "binding signal (PBM E-score (-0.5 to 0.5))": 0.489}
{"sequence": "ATTACATA (double strand) [8-mer ATTACATA]", "binding signal (PBM E-score (-0.5 to 0.5))": 0.488}
{"sequence": "CCGTGTAA (double strand) [8-mer CCGTGTAA]", "binding signal (PBM E-score (-0.5 to 0.5))": 0.486}
{"sequence": "TATGTAAA (double strand) [8-mer TATGTAAA]", "binding signal (PBM E-score (-0.5 to 0.5))": 0.49}
{"sequence": "TGTGTAAA (double strand) [8-mer TGTGTAAA]", "binding signal (PBM E-score (-0.5 to 0.5))": 0.489}
{"sequence": "CTTTACAC (double strand) [8-mer CTTTACAC]", "binding signal (PBM E-score (-0.5 to 0.5))": 0.489}
